As usually defined, the EC50 is the midpoint of the concentration-response curve. Higher therefore signals a need for much substance.

Test [1] addresses T1, BSA-coupled (PA)15 DPR protein peptide (bovine, UniProt P02769 25-607, conjugated via a bifunctional linker (SMCC) to bovine serum albumin).
T1 construct: also called BSA-(PA)15
Nature of the test: Western blot, BSA-coupled peptide. As to the method: (§1) Resolved proteins were then electroblotted (Novex® Semi-Dry Blotter, 1 h, 25V) on methanol-activated PVDF membranes (Immobilon®-P Transfer Membrane, Merck & Cie, Schaffhausen, Switzerland) by the use of Novex® NuPAGE® transfer buffer 2× (Life Technologies Europe B.V., Zug, Switzerland). Non-specific binding sites were blocked overnight at 4° C. (or alternatively for 1 h at room temperature) with PBS/0.1% Tween®-20 containing 2% BSA (Sigma-Aldrich, Buchs, Switzerland) (PBST). […] Membranes were washed three times in PBST for 15 min at RT and then incubated with a donkey anti-human IgG Fcγ-specific antibody conjugated with HRP (1:20000 or 1:10000 dilution, Jackson ImmunoResearch Laboratories, Inc., West Grove, USA) for 1 h at room temperature. Antibody binding was determined by membrane development using ECL and ImageQuant 350 detection (GE Healthcare, Otelfingen, Switzerland).
(§2) The binding specificity of the human-derived antibodies to BSA-coupled C9orf72 dipeptide repeat proteins (GA)₁₅, (GP)₁₅, (GR)₁₅, (PA)₁₅ and (PR)₁₅ was determined by Western blot analysis.
(In general: A western blot detects proteins with antibodies after separation by electrophoresis.)

Test [2] has as its target T2, BSA-coupled (GP)15 DPR protein peptide (bovine, conjugated via a bifunctional linker (SMCC) to bovine serum albumin).
T2 construct: also called BSA-(GP)15
Nature of the test: Western blot, BSA-coupled peptide. Here is the method:
as §1, §2

Test [3] addresses T3, BSA-coupled (GA)15 DPR protein peptide (bovine, conjugated via a bifunctional linker (SMCC) to bovine serum albumin).
T3 construct: also called BSA-(GA)15
In words: indirect ELISA, BSA-coupled peptide coated, antibody titrated [also D00012 FIG. 3B]. Here is the method:
In brief, dipeptide repeat proteins were synthesized and purified by Schafer-N(Copenhagen, Denmark): (GA)₁₅: H-CHHHHHH(GA)₁₅-OH; (GP)₁₅: H-C(GP)₁₅-OH; (GR)₁₅: H-C(GR)₁₅-OH; (PA)₁₅: H-C(PA)₁₅-OH; (PR)₁₅: H—C(PR)₁₅-OH. DPR protein peptides were then conjugated via a bifunctional linker (SMCC) to bovine serum albumin (BSA). 96-well microplates (Corning Incorporated, Corning, USA) were coated with BSA-coupled or -uncoupled dipeptide repeat protein peptides at a concentration of either 5 μg/ml or 20 μg/ml in coating buffer (15 mM Na₂CO₃, 35 mM NaHCO₃, pH 9.42). Non-specific binding sites were blocked for 1 h at room temperature with PBS/0.1% Tween®-20 containing 2% BSA (Sigma-Aldrich, Buchs, Switzerland). Primary antibodies were diluted to the indicated concentrations and incubated 1 h at room temperature, followed by incubation with a donkey anti-human IgG Fcγ-specific antibody conjugated with HRP (Jackson ImmunoResearch Laboratories, Inc., West Grove, USA). Binding was determined by measurement of HRP activity in a standard colorimetric assay. EC₅₀ values were estimated by non-linear regression using GraphPad Prism software (San Diego, USA).
(In general: In an ELISA, binding on a coated surface is turned into a signal by an enzyme label.)

For the next test, the target named is T4, GA5: H-(GA)5HHHHHH-NH2.
T4 peptide: H-GAGAGAGAGAHHHHHH-NH2
Nature of the test: indirect ELISA, His-tagged peptide coated at 50 ug/ml, antibody titrated [also D00025 FIG. 7G]. From the text: (§3) In brief, dipeptide repeat proteins were synthesized and purified by Schafer-N (Copenhagen, Denmark): GA₂₀: H-(GA)₂₀HHHHHH-NH₂; GA₁₀: H-(GA)₁₀HHHHHH-NH₂; GA₆: H-(GA)₆HHHHHH-NH₂; GA₅: H-(GA)₅HHHHHH-NH₂; GA₄: H-(GA)₄HHHHHH-NH₂; GA₃: H-(GA)₃HHHHHH-NH₂; GA₂: H-(GA)₂HHHHHH-NH₂; GP₂₀: H-(GP)₂₀HHHHHH-NH₂; GP₁₀: H-(GP)₁₀HHHHHH-NH₂; GP₆: H-(GP)₆HHHHHH-NH₂; GP₅: H-(GP)₅HHHHHH-NH₂; GP₄: H-(GP)₄HHHHHH-NH₂; GP₃: H-(GP)₃HHHHHH-NH₂; GP₂: H-(GP)₂HHHHHH-NH₂. GR₂₀: H-(GR)₂₀HHHHHH-NH₂; GR₁₀: H-(GR)₁₀HHHHHH-NH₂; GR₆: H-(GR)₆HHHHHH-NH₂; GR₅: H-(GR)₅HHHHHH-NH₂; GR₄: H-(GR)₄HHHHHH-NH₂; GR₃: H-(GR)₃HHHHHH-NH₂; GR₂: H-(GR)₂HHHHHH-NH₂; PA₂₀: H-(PA)₂₀HHHHHH-NH₂; PA₁₀: H-(PA)₁₀HHHHHH-NH₂; PA₆: H-(PA)₆HHHHHH-NH₂; PA₅: H-(PA)₅HHHHHH-NH₂; PA₄: H-(PA)₄HHHHHH-NH₂; PA₃: H-(PA)₃HHHHHH-NH₂; PA₂: H-(PA)₂HHHHHH-NH₂; PR₂₀: H-(PR)₂₀HHHHHH-NH₂; PR₁₀: H-(PR)₁₀HHHHHH-NH₂; PR₆: H-(PR)₆HHHHHH-NH₂; PR₅: H-(PR)₅HHHHHH-NH₂; PR₄: H-(PR)₄HHHHHH-NH₂; PR₃: H-(PR)₃HHHHHH-NH₂; PR₂: H-(PR)₂HHHHHH-NH₂. 96-well microplates (Corning Incorporated, Corning, USA) were coated with dipeptide repeat protein peptides at a concentration of 50 μg/ml in coating buffer (15 mM Na₂CO₃, 35 mM NaHCO₃, pH 9.42). Non-specific binding sites were blocked for 1 h at room temperature with PBS/0.1% Tween®-20 containing 2% BSA (Sigma-Aldrich, Buchs, Switzerland). Primary antibodies were diluted to the indicated concentrations and incubated 1 h at room temperature, followed by incubation with a donkey anti-human IgG Fcγ-specific antibody conjugated with HRP (Jackson ImmunoResearch Laboratories, Inc., West Grove, USA). Binding was determined by measurement of HRP activity in a standard colorimetric assay. EC₅₀ values were estimated by non-linear regression using GraphPad Prism software (San Diego, USA).

The target of another test is T5, GA3: H-(GA)3HHHHHH-NH2.
T5 peptide: H-GAGAGAHHHHHH-NH2
Described as above.
From the text: as §3

T3 sequence (peptide, as listed by the source limits assumed, chain 1 of 2): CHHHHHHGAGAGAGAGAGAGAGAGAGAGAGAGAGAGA
T3 sequence (P02769 25-607 limits assumed, chain 2 of 2): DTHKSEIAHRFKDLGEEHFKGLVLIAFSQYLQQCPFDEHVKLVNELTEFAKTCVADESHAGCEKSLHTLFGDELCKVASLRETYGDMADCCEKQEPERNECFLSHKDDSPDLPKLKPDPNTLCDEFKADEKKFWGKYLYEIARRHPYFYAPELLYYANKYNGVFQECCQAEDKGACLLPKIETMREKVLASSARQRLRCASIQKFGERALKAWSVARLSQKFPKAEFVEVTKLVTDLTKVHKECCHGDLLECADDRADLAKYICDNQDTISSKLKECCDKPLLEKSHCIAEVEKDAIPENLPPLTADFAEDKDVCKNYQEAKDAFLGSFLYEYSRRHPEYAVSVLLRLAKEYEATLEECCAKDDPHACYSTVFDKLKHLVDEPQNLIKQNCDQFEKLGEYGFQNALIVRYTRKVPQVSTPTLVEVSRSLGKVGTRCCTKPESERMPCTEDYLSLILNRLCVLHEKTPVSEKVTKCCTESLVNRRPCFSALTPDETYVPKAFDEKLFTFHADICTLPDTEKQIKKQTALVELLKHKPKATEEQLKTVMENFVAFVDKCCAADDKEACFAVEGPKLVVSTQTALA
T1 sequence (peptide, as listed by the source limits assumed, chain 1 of 2): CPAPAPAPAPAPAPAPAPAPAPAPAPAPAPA
T1 sequence (P02769 25-607 limits assumed, chain 2 of 2): as the sequence (P02769 25-607 limits assumed, chain 2 of 2) above
T2 sequence (peptide, as listed by the source limits assumed, chain 1 of 2): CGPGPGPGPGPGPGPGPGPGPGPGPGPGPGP
T2 sequence (P02769 25-607 limits assumed, chain 2 of 2): as the sequence (P02769 25-607 limits assumed, chain 2 of 2) above

B1: NI-308.6B11 (antibody, V domains shown)
VH: EVQLVQSGAEVKRPGASVKVSCKVSGYTLTELSMHWVRQAPGKGLEWMGGFDPEDGETVYAQKFQGRVTMTEDTSTDTAYMELSSLRSEDTALYHCATYGSSWHWNEGNEGSYYFDYWGQGTLVTVSS
VL: CDIQMTQSPSSLSASVGDRVTITCQASQDISIYLNWYQQKPGKAPKLLIYDASNLETGVPSRFSGSGSGTDFTFTISGLQPEDVARYYCQQYDDLPITFGQGTRLEIK
notes: Recombinant complete human IgG1, kappa
For B1, the binding result in test [1] and in test [2] was “no binding (tested: 10 nM or 100 nM)” each time.

B2: NI-308.18F7 (antibody, V domains shown)
VH: QVQLQESGPGLVKPSETLSVTCTVSGGSINDYYWNWIRQPAGKGLEWIGRIYASGTINYNPSLQSRVTMSIDTSKNQFSLDLISVSAADTAVYYCARWGQVVGDYYYGMDVWGQGTTVTVSS
VL: EIVLTQSPLSLSVTPGEPASISCKSSQSLQHTNGYNYLDWYLLKPGQSPQLLIFLTSNRASGVPDRFSGSGSGTNFTLKISRVEAEDVGVYYCMEGIQLWTFGQGTKLEIK
notes: as for B1
As to B2, the EC50 in test [3] was 0.11 nM. Besides, the binding result with GA5: H-(GA)5HHHHHH-NH2 and with GA3: H-(GA)3HHHHHH-NH2 was “no binding (tested: about 4x10^5 pM (last point))” in each case.

The values above are taken from US20200010567A1 (NEURIMMUNE, published 2020).
